Experimental data taken from patent US20210101970A1 (Pfizer, published 2021).
Blank lines part the entries; values can stand above or below the binder they belong to.

What was measured:
human CXCR5 [1] = molecular target: T1, human CXCR5 (human, UniProt P32302 1-372); assay: cell-based or functional assay
T1 sequence: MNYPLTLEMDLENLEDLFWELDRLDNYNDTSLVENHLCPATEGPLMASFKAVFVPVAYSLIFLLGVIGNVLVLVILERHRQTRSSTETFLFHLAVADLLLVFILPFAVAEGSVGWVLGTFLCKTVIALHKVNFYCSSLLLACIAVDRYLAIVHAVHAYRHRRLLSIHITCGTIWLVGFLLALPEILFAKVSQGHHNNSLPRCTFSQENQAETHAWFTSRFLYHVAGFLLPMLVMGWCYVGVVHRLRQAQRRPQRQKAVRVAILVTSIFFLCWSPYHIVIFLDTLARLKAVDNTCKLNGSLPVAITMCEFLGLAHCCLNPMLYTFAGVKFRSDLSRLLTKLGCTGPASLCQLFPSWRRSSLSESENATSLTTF

XC253 = molecular target: T2, XC253; assay: FACS on cells expressing the CXCR5 construct
T2 construct: whole, on cells; also called hCXCR5-mN

XC254 = molecular target: T3, XC254; assay: FACS on cells expressing the CXCR5 construct
T3 construct: whole, on cells; also called hCXCR5-mL2-mL3

XC256 = molecular target: T4, XC256; assay: FACS on cells expressing the CXCR5 construct
T4 construct: whole, on cells; also called hCXCR5-mN-mL2

human CXCR5 [2] = molecular target: T1, human CXCR5; assay: flow cytometry, human PBMC B cells
human CXCR5 [3] = molecular target: T1, human CXCR5; assay: flow cytometry, human PBMC Tfh-like cells
Procedure: (§1) The apparent affinity for cell surface CXCR5 of chimeric and humanized CXCR5 fucosylated and afucosylated antibodies was assessed. More specifically, to determine the apparent affinity of chimeric and humanized CXCR5 antibodies to CXCR5-expressing cells, cell binding experiments were performed on human and cynomolgus monkey peripheral blood mononuclear cells (PBMCs) and human tonsillar mononuclear cells (TMCs). The apparent affinity of CXCR5 mab binding to CXCR5+ cells (B cells, bona fide Tfh cells, and circulating Tfh-like cells) was calculated as the EC50 of equilibrium binding titration curves in which the geometric mean fluorescence intensity (gMFI) of the antigen binding population was quantified by flow cytometry.
(§2) Following isolation, PBMCs were plated at a density of 1.0×10⁵ cells per well and CD4+ TMCs were plated at a density of 2.0×10⁵ cells per well in isolation buffer (PBS containing 1% FBS and 1 mM EDTA) in 96 well U-bottom plates. The plates were then centrifuged at 1500 rpm for 5 minutes at room temperature. PBMCs and CD4+ TMCs were resuspended in Fluorescence-activated cell sorting (FACS) buffer (PBS containing 1% FBS) containing human crystallized fragment Fc block (2 μL per well; Biolegend) and 4-fold serial dilutions of the antibodies (11-point dilution series, beginning at 5000 ng/mL for PBMCs and 312.5 ng/mL for CD4+ TMCs) and incubated on ice for 2 hours. […]

cynomolgus monkey CXCR5 = molecular target: T5, cynomolgus monkey CXCR5 (cynomolgus monkey, UniProt P32302 1-372 (human entry)); assay: flow cytometry, cynomolgus PBMC Tfh-like cells
T5 construct: also called cynoCXCR5; NHP CXCR5
T5 chain: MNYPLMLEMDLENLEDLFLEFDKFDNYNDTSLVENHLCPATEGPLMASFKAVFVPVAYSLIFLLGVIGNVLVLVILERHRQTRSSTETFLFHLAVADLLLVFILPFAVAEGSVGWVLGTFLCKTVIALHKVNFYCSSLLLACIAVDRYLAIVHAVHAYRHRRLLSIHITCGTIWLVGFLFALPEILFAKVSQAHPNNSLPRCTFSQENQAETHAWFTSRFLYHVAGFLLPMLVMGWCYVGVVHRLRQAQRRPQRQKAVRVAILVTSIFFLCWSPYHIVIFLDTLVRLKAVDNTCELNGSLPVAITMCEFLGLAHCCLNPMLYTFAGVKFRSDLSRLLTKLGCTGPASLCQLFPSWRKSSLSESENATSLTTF
Procedure: as §1, §2

CXCR2 = molecular target: T6, CXCR2 (human, UniProt P25025 1-360); assay: flow cytometry (GMFI) on fixed CXCR2 cells, chimeric antibody, goat anti-human PE
T6 construct: whole, on cells
T6 sequence (looked up): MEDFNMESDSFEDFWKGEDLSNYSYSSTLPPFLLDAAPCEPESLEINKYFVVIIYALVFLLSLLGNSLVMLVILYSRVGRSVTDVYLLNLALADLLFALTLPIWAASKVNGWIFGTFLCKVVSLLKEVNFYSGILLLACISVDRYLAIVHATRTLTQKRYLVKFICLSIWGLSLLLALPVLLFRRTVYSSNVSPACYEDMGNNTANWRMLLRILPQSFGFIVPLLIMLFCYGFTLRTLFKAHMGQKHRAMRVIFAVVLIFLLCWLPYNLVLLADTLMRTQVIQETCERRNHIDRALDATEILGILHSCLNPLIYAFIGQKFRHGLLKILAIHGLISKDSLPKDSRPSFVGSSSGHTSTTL
Procedure: To determine the specificity of the antibodies for CXCR5, the binding of the antibodies to cells expressing other […] was assessed. Briefly, FlowCellect chemokine receptor cell lines expressing CXCR1, CXCR2, or CXCR3 (EMD Millipore, Billerica, Mass.), and Jurkats (ATCC, Manassas, Va.), which express CXCR4, were stained with 5 μg/ml or 10 μg/ml of each anti-CXCR5 chimeric antibody. The cells were then incubated with goat anti-human conjugated with PE (Southern Biotech, Birmingham, Ala.) prior to analysis by flow cytometry using a FACSVerse Analyzer (BD Biosciences, Franklin Lakes, N.J.).

Ca2+ flux IC50 (human CXCR5 [1]): 3.49 nM
GMFI (XC253): 1780 GMFI
GMFI (XC254): 11400 GMFI
GMFI (XC256): 1970 GMFI
B1: 2C9 (reference antibody) (antibody, human IgG1, kappa, V domains shown)
VH: EVQLVESGGGLVKPGGSLRLSCAASGFTFSTNAMNWVRQAPGKGLERVARIRSKSNNYATYYADSVKDRFTISRDDSKNTLYLQMNSLKTEDTAVYYCVTMIPFAYWGQGTLVTVSS
VL: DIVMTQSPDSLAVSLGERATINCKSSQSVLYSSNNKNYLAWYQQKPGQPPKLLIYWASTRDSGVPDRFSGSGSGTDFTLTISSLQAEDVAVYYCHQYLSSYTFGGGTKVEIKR
notes: fucosylated

fold higher affinity than 2C9 (human CXCR5 [2]): ~10 fold
fold higher affinity than 11A7 (human CXCR5 [2]): ~100 fold
EC50 (human CXCR5 [3]): 0.00589 nM
GMFI (XC253): 1220 GMFI
GMFI (XC254): 11500 GMFI
GMFI (XC256): 1260 GMFI
EC50 (cynomolgus monkey CXCR5): 0.0105 nM
B2: Afucosyl humanized 11G2 154/155 (antibody, human IgG1, kappa, V domains shown)
VH: EVQLVESGGGLVQPGGSLRLSCAASGFTFTDFYMSWVRQAPGKGLEWVGFIRNKANGYTTEYSASVKGRFTISRDNAKNSLYLQMNSLRAEDTAVYYCARVYGSTLHYWGQGTLVTVSS
VL: DIQMTQSPSSLSASVGDRVTITCRASESVEYHGTSLMHWYQQKPGKAPKLLIYAASNVESGVPSRFSGSGSGTDFTLTISSLQPEDFATYYCQQSRKVPWTFGQGTKVEIKR
modifications: afucosylated Fc glycan (Asn297)
notes: also called afucosyl h11G2 XC154/XC155; afucosylated h11G2 VL XC154/VH XC155

B3: Chimeric 11G2 (antibody, human IgG1, kappa, V domains shown)
VH: EVKLVESGGGLVQPGGSLRLSCATSGFTFTDFYMSWVRQPPGRALEWLGFIRNKANGYTTEYSASVKGRFTISRDNSQSILYLQMNTLRAGDSATYYCVRVYGSTLHYWGQGTILTVSS
VL: DVVVTQSPDSLAVSLGQRATISCRASESVEYHGTSLMHWYQQKPGQPPKLLIYAASNVESGVPARFSGSGSGTDFSLNIHPVEEGDIAMYFCQQSRKVPWTFGGGTKLEIKR
notes: mouse V regions on human IgG1/kappa; also called 11G2 (chimeric)
binding result (CXCR2): no binding (tested: 5 or 10 µg/ml (not on the sheet))
